T1: human factor XIIa (human, UniProt P00748 20-615, biotinylated with Biotin Ester (Zymed); sites not stated)
T1 chain: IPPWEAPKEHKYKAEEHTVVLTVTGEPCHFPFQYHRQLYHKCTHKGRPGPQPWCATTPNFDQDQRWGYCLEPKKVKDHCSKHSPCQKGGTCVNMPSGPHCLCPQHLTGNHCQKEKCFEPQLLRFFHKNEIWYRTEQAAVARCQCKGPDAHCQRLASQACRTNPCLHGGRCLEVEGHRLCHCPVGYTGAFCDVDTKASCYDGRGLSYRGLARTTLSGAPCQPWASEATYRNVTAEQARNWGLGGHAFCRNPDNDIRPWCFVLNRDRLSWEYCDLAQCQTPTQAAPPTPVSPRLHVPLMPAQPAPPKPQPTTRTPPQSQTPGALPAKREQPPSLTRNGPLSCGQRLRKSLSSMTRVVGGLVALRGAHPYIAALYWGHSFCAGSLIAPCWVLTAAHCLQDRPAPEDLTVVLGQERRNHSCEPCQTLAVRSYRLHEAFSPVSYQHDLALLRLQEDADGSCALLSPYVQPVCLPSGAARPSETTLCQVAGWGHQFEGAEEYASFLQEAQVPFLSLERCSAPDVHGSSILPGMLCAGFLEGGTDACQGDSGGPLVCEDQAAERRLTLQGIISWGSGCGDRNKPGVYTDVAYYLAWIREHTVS

T2: human factor Xa (human, UniProt P00742 41-179; P00742 235-488)
T2 chain 1: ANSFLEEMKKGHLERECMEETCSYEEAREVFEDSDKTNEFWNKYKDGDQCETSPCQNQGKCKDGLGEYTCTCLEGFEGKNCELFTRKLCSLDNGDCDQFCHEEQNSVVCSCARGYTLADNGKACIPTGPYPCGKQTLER
T2 chain 2: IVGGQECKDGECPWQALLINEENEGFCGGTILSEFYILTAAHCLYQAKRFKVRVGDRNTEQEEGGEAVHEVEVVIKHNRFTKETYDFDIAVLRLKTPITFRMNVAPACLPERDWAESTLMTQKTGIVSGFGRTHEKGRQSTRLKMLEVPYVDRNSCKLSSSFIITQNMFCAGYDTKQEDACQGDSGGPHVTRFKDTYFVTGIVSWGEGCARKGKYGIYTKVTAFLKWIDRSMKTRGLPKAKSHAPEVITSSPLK

B1: TW6148 (protein)
chain: EVVREVCSEQAETGPCRAMISRWYFDVTEGKCAPFFYGGCGGARNNFDTEEYCMAVCGSAI
B2: TW6149 (protein)
chain: B1 chain with A43N, R44A
B3: TW124 (protein)
chain: EVCSEQAETGPCRAMISRWYFDVTEGKCAPFFYGGCGGNSNNFDTEEYCMAVCGSAI
B4: DD111 (protein)
chain: B1 chain with M19S, A43N
B5: TW106 (protein)
chain: B3 chain with M15R, S40R
B6: TW101 (protein)
chain: B3 chain with R13K, S40R
B7: TW6211 (protein)
chain: B1 chain with R22K, A43N
B8: AL301 (protein)
chain: B1 chain with F36L, A43N
B9: TW6140 (protein)
chain: B1 chain with G41N, A43N
B10: TW118 (protein)
chain: B3 chain with G37R, S40R
B11: DD100 (protein)
chain: B1 chain with G41C, A43N
B12: DD128 (protein)
chain: B1 chain with R22L, A43N
B13: TW6155 (protein)
chain: B1 chain with G41M, A43N
B14: AL302 (protein)
chain: B1 chain with F36G, A43N
B15: TW6141 (protein)
chain: B1 chain with G41Q, A43N
B16: TW6158 (protein)
chain: B1 chain with G41T, A43N
B17: TW6163 (protein)
chain: B1 chain with I20H, A43N
B18: DD105 (protein)
chain: B1 chain with S21W, A43N
B19: TW6181 (protein)
chain: B1 chain with I20K, A43N
B20: DD103 (protein)
chain: B1 chain with S21F, A43N
B21: DD102 (protein)
chain: B1 chain with S21P, A43N
B22: DD104 (protein)
chain: B1 chain with S21Y, A43N
B23: BG012 (protein)
chain: B1 chain with R22T, A43N
B24: TW6168 (protein)
chain: B1 chain with S21L, A43N
B25: TW6182 (protein)
chain: B1 chain with S21H, A43N
B26: TW6180 (protein)
chain: B1 chain with I20F, A43N
B27: TW6210 (protein)
chain: B1 chain with S21Q, A43N
B28: CL006 (protein)
chain: B1 chain with R22A, A43N
B29: BG001 (protein)
chain: B1 chain with I20L, A43N
B30: TW6194 (protein)
chain: B1 chain with S21E, A43N
B31: TW6172 (protein)
chain: B1 chain with I20A, A43N
B32: TW116 (protein)
chain: B3 chain with S17I, S40R
B33: TW6165 (protein)
chain: B1 chain with M19A, S21W, A43N
B34: TW6166 (protein)
chain: B1 chain with M19A, S21Y, A43N
B35: BG028 (protein)
chain: B1 chain with M19L, S21Y, A43N

Numbering of substitutions follows the chain as printed.

The target in the first assay is T3, human plasma kallikrein (human, UniProt P03952 20-638). The assay is described as follows: enzyme inhibition.
T3 sequence (P03952 20-638): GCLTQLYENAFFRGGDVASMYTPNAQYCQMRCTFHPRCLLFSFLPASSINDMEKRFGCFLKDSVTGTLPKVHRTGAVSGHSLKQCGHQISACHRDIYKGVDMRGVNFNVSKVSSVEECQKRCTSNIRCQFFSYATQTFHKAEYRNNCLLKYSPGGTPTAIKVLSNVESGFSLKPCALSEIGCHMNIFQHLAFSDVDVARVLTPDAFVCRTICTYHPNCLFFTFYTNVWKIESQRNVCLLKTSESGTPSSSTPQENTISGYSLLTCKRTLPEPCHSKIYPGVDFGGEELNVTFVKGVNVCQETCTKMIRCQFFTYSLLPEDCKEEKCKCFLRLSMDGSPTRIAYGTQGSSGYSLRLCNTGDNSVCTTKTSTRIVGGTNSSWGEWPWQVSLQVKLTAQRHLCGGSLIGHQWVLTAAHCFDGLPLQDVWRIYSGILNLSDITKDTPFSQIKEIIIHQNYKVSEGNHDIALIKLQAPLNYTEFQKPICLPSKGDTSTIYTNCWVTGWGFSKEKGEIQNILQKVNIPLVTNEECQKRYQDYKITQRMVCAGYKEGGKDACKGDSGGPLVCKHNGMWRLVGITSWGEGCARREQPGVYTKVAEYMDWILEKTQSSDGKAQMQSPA
On to B1, for which the Ki was found to be 40 nM.
Same read-out and setting: next, B2: 54 nM; B3: 64 nM.

In the next assay the target is T3, human plasma kallikrein. The assay is described as follows: enzyme inhibition. This is another data set of the same source.
The molecule B4 registered a Ki of 5.6 nM.
Same read-out and setting: next, B5: 560 nM; B6: 2000 nM.

The next assay concerns the target T1, human factor XIIa. Description: enzyme inhibition.
The molecule B7 showed a Ki of 402 nM.
Still for that read-out and setting: next, B8: 1560 nM; B9: 475 nM; B10: 13000 nM.

The target of the next assay is T3, human plasma kallikrein. The assay is described as follows: enzyme inhibition. This is another data set of the same source.
In turn, B7 showed a Ki of 184 nM.
On the same count and under the same terms, next, B8: 216 nM; B11: 15 nM.
The same measure, in the same setting: next, B12: 44 nM.
The same measure, in the same setting: as for B13, the figure is 11 nM; as for B14, 39 nM.
Take B15: the Ki was 42 nM.
On the same count and under the same terms, next, B9: 35 nM; B16: 29 nM.
As to B10, the inhibition constant Ki was determined as 6 nM.

Another assay deals with T2, human factor Xa. Description: enzyme inhibition.
On to B12, for which affinity was put at a Ki of 37 nM.
On the same count and under the same terms, as for B13, the figure is 27 nM; as for B14, 316 nM; as for B10, 68 nM.

For the next assay, the target named is T1, human factor XIIa. The assay is described as follows: enzyme inhibition. This is another data set of the same source.
Molecule B17 displayed an inhibition constant Ki of 4530 nM.
Still for that read-out and setting: next, B18: 198 nM; B19: 1510 nM.
The same measure, in the same setting: next, B20: 2130 nM.
B21 showed a Ki of 315 nM.
B22: the inhibition constant (Ki) turned out to be 237 nM.
Same read-out and setting: next, B23: 40 nM.
The same measure, in the same setting: next, B24: 3520 nM; B25: 752 nM; B26: 885 nM.
Still for that read-out and setting: as for B27, the figure is 277 nM; as for B28, 89600 nM; as for B29, 489 nM.

In the next assay the target is T3, human plasma kallikrein. Description: enzyme inhibition. The source holds these as a separate data set.
B17: the Ki was determined as 4.7 nM.
On the same count and under the same terms, next, B30: 70.8 nM; B18: 18 nM; B19: 150 nM.
B20 gave a Ki of 17 nM.
The same measure, in the same setting: next, B21: 16 nM.
Still for that read-out and setting: next, B31: 315 nM.
On the same count and under the same terms, next, B22: 15 nM; B24: 25.8 nM.
B25 showed an inhibitory constant (Ki) of 36 nM.
The molecule B26 registered a Ki of 70 nM.
In the case of B27, the Ki turned out to be 54 nM.
Same read-out and setting: as for B28, the figure is 110 nM; as for B29, 38 nM.
The same measure, in the same setting: as for B32, the figure is 145 nM.

The next assay has as its target T2, human factor Xa. The assay is described as follows: enzyme inhibition. This is another data set of the same source.
B17 registered a Ki of 457 nM.
The molecule B18 showed a Ki of 320 nM.
Still for that read-out and setting: next, B20: 110 nM.
Same read-out and setting: next, B31: 1460 nM; B22: 345 nM.
Take B23: the Ki came out at 116 nM.
B24 registered a Ki of 395 nM.
The same measure, in the same setting: next, B26: 39 nM.
Still for that read-out and setting: next, B28: 133 nM; B29: 204 nM; B32: 806 nM.

In another assay the target is T1, human factor XIIa. The assay is described as follows: enzyme inhibition. The source holds these as a separate data set.
On to B33, for which affinity was put at a Ki of 206 nM.
As for B34, the Ki turned out to be 73 nM.
The molecule B35 had a Ki of 93.8 nM.

Source of the values: US6906033 (dated 2005).
